Values joined by “and” are separate entries in the source; they are usually repeats but may differ in a detail not shown here. Equal values may be shown once. “Also recorded” adds a separate entry of the source. Ends that are not written are not given here.
Legend:
[1] = Proteolytic resistance of Av3b mutants during production-strain fermentation (rpHPLC); type: physicochemical; conditions: for Degradation?: mutant strain fermentation at pH 6.5, 140 hours, rpHPLC; for degradation product during fermentation (HPLC): production strain fermentation at pH 6.5, rpHPLC
Protocol: The mutants in the table below were evaluated for stability in fermentation beer. Fermentation conditions and HPLC analysis were performed as described above. The mutant production strains were generated using YCT306 K. lactis strain. The production of mutants was performed as described in Example 2; fermentation conditions were performed using the same fermentation process described above regarding the Av3b production strain, with pH control at pH 6.5. […] To identify the mutant with proteolytic resistance, the mutant strains were grown under the same fermentation conditions as Av3b, and samples were taken throughout the fermentation process. The samples taken at 140 hour of fermentation process were analyzed in rpHPLC.

[2] = DASbox small-scale fermentation, degradation by HPLC and LC/MS; type: physicochemical; conditions: DASbox fed batch fermentation runs
Protocol: DASbox® is a parallel bioreactor system (Eppendorf, 175 Freshwater Blvd, Enfield, CT 06082, USA). The DASbox system used here contains 8 fermentation vessels with 250 mL volume capacity, allowing 8 small scale fermentation runs simultaneously. The DASbox fermentation runs were performed according to the manufacturer's instructions, and using the fermentation conditions described herein.
The screening of the Av3b mutants was conducted using a fed batch process in aerobic bioreactor. Reactors were initially filled to ˜45% capacity with a rich culture media containing 5-20 g/L of a carbon source such as glucose, sorbitol, or lactose, 5-20 g/L phosphoric acid, 0.1-1.5 g/L Calcium sulfate, 5-15 g/L Potassium sulfate, 0.5-10 g/L Magnesium sulfate heptahydrate, 1-5 g/L potassium hydroxide, and 10-60 g/L of corn steep liquor. The temperature of the reactor was maintained between 25-35° C. for the duration of the fermentation. The pH was held constant between 4-5.5 with the addition of 15% ammonium hydroxide. Dissolved oxygen was held constant by sparging air between 0.5-1.5 volume/volume/min and by increasing agitation to maintain a set point of 10-30%.
Inoculation of the reactor was from an overnight seed culture containing 5-40 g/L of a carbon source such as glucose, sorbitol, or lactose, and 5-40 g/L of corn steep liquor. Inoculation percentage ranged from 5-20% of initial fill volume. Once inoculated, the reactor was fed with a 70% solution of the selected carbon source until the reactor was filled and/or desired supernatant peptide concentration was achieved, approximately 96-140 hours and 0.8-1.2 g/L, respectively.

Helicoverpa zea = assay: Lepidoptera injection assay, corn earworm (CEW); type: in vivo; conditions: for knock-down effects compared to Av3b: CEW and FAW injection, KD50; for KD50 CEW: third instar larva, 2 μL injection, scored at 24-hours post-injection
Protocol: (§1) An injection assay was performed on Helicoverpa zea (corn earworm or “CEW”) and Spodoptera frugiperda (fall armyworm or “FAW”). Injections comprised a given Av3b mutant peptide combined with water to arrive at the planned dose. The Av3b mutants included Av3bM24; Av3bM165; Av3bM103; and Av3bM170. Av3b was used as a control.
(§2) Insects were reared on an artificial diet prepared from General Purpose Lepidoptera diet (Frontier Scientific, Newark, DE 19713, product No. F9772) according to the manufacturer's instructions. To perform the insect injection bioassay, 5 mL of hot diet was dispensed into the well of a rearing tray (Bio-Service Inc., Bio-RT-32), with 8 wells per injection treatment. The hot diet was then allowed to cool and solidify. Next, third instar larva were incubated on ice in order to immobilize them. Injections were prepared on a hand-microapplicator with injection solution (>100 μL) in 1-cc all-glass syringe having a 30 gauge straight needle. Air bubbles were removed from the syringe, and the syringe was set it up on the microapplicator. Injection volume was adjusted in the microapplicator at 2 μL.
(§3) To inject the larva, the insects were picked up and positioned close to the injection needle. The needle was allowed to penetrate the cuticle of the third pro-leg of the larva. The injection knob of the microapplicator was then rotated to inject a 2 μL solution into hemolymph from the third pro-leg. After injection the larva maintained on the needle for a few seconds to make sure the injected solution was absorbed. Then, the larva were gently removed from the needle and placed into the wells of prepared tray, along with 5 mL of solidified diet per well. Finally, the tray was sealed with vent covers.
(§4) Injected larva were incubated at 28° C. in an insect incubator, and scored at 24-hours post-injection based on their condition. Insect conditions were categorized as follows: alive (walking, eating, normal behavior); affected (showing toxic symptoms, such as tremors, writhing, unbalanced gait, or a combination thereof), knockdown (paralyzed albeit able to move with gentle poke); and dead (unmoving, discoloration, or a combination thereof).

Spodoptera frugiperda = assay: Lepidoptera injection assay, fall armyworm (FAW); type: in vivo; conditions: third instar larva, 2 μL injection, scored at 24-hours post-injection
Protocol: as §1, §2, §3, §4

[3] = Circular dichroism assay, melting temperature; type: physicochemical; conditions: 10 mM Na3PO4 solution, pH 5.9; 20° C. to 98° C.
Protocol: A JASCO J-1500 CD spectrometer (JASCO, 28600 Mary's Court, Easton, MD 21601 USA) was used to measure the CD spectrum and the secondary structure information of the Av3bM24, Av3bM165, Av3bM103, and Av3bM170 peptides (with Av3b as a comparator). The peptides were prepared in 10 mM Na3PO4 solution, pH 5.9, and loaded into the cuvette for CD spectrum measurement. Measurements were processed with a light wavelength scan ranging from 180 nm to 250 nm, with a 1 nm interval; the temperature graduate changed from 20° C. to 98° C., with 2° C. interval.

[4] = Thermo-stability at 54° C. in pH 4.0 solution; type: physicochemical; conditions: for peptide change on day 14: pH 4.0, 54° C., HPLC peak area, + mass increase, − mass loss; for thermo-stability at 54° C.: pH 4.0 solution, up to 14 days
Protocol: A thermo-stability study was performed for Av3b, Av3bM24, Av3bM165, Av3bM103, and Av3bM170 in a pH 4.0 solution at 54° C. for 0, 3, 7, 10, 12, and 14 days, with a caffeine internal control to cancel variation from evaporation. Samples of 1 mL were prepared in 1.5 mL microtube with sodium acetate buffer (NaOAc) at pH 4.0, containing 0.1 μg/μL of peptide, and 0.025 μg/μL of caffeine. The samples were incubated at 54° C. in a dry mixer. At 0, 3, 7, 10, 12, and 14 days, 20 μL of each sample was analyzed via analytic rpHPLC system to evaluate peptide loss. Each sample contained a fixed amount caffeine, which was used to compensate the peptide HPLC UV absorbance peak change due to volume change by evaporation. FIG. 68.

[5] = Stability of Av3b mutants in insect gut extract; type: in vitro ADME, Helicoverpa zea; conditions: H. zea gut extract, room temperature
Protocol: To test the stability of the Av3b mutants in the gut enzymes of a lepidopteran pest, the gut extract were prepared from Helicoverpa zea (Corn Earworm or “CEW”). Corn Earworm insects were obtained commercially from Benzon Research (Carlisle, PA) as eggs. Hatched larvae were raised on artificial diet until ⅘^th instar (20 mm long) before guts were isolated. Before gut extraction, larvae were anesthetized using CO2. The larva was then pinned on the dissection plate at both the head and the tail. Using dissection scissors, the cuticle was nicked. The dissection scissors were then inserted into the nick and the […] along the insect. The cuticle was then carefully pulled back and pinned open to reveal the digestive track. Using DI water, the insect was thoroughly rinsed to remove hemolymph.
After the insect guts were extracted from the larva, they were spun at 15000 rpm for 5 minutes. The resulting supernatant is the “insect gut extract” that was used to determine peptide stability. Av3b mutant peptide was mixed with the gut extract to […] of 2 μg/μL, and incubated at room temperature. At time points between 0-100 hours, 6 μL of a given sample was mixed with 93 μL dH2O followed by the addition of 1 μL of a 2% trifluoracetic acid solution to stop the reaction. The sample was then analyzed by rpHPLC to determine the peptide loss during the gut extract treatment.

[6] = Stability of purified peptide spiked into Av3b fermentation beer (rpHPLC); type: physicochemical
Protocol: To determine the stability of the new mutants, Av3bM19, Av3bM23, Av3bM24, Av3bM25, Av3bM27, and Av3bM28 were purified and incubated in Av3b fermentation beer. The mutants were purified by cation-exchange chromatography using a GE SP-Sephadex C-25 column. The column was first calibrated with 30 mM sodium citrate buffer at pH 3.0. Then, the culture supernatant containing the secreted mutant peptide was loaded into the column to let the mutant peptide bind to the resin. The column was then washed with 30 mM sodium citrate buffer, pH 3.0, followed by washing with 30 mM sodium acetate, pH 4.0. Next, the bound mutant peptide was eluted by 1 M or 2 M NaCl with 30 mM sodium acetate, pH 4.0. The elution was then concentrated and buffer-exchanged to 30 mM sodium acetate, pH 4.0 using a 1 kD cutoff spin concentrator.
After purification, each of the mutants, Av3bM19, Av3bM23, Av3bM24, Av3bM25, Av3bM27, and Av3bM28, were evaluated for stability by spiking them into Av3b strain fermentation beer at pH 6.5. As a negative control, Av3b was evaluated in a pH 4.0 buffer. As a positive control, purified Av3b was evaluated by spiking into the same Av3b fermentation beer at pH 6.5. All stability experiments were performed at room temperature. […] The amount of peptide remaining relative to the beginning was determined by normalizing the peak area at different time to the one at 0 hour for each treatment. The degradation trend is visualized by the bar graph of the relative remaining peptide amount trend.

Row | Sequence | Degradation? [1] | degradation product during fermentation (HPLC) [1] | degradation detected via HPLC and LC/MS [2] | knock-down effects compared to Av3b (Helicoverpa zea) | KD50 CEW (Helicoverpa zea) | KD50 FAW (Spodoptera frugiperda) | CD Melting temperature [3] | peptide change on day 14 [4] | thermo-stability at 54° C. [4] | half conversion time to Av3b peptide [5] | half-degradation time ([6]; Av3b production fermentation beer pH 6.5, room temperature (Example 11, FIG. 37)) | half-degradation time ([6]; Av3b production fermentation beer pH 6.5, room temperature (Example 12, FIG. 39)) | peptide remaining ([6]; fermentation beer pH 6.5, room temperature, 248 hours, HPLC peak area relative to starting amount) | stability of peptide in pH 4 buffer (negative control) ([6]; pH 4 buffer, room temperature) | time stable in solution at 54° C. ([4]; pH 4 NaOAc buffer, 54° C.)
1 | KSCCPCYWGGCPWGQNCYPEGCSGPKVG [Av3bM165] | No | did not show any degradation product; also recorded: without apparent degradation products | degradation was not detected | comparable knock-down effects to Av3b | 389 pmol/g | 578 pmol/g | 80 °C | +4.2% | thermo-stable | 5.3 min |  |  |  |  | 
2 | KSCCPCYWGGCPWGQNCYPEGCGGPG [Av3bM170] | No | did not show any degradation product | degradation was not detected |  | 104 pmol/g | 495±148 pmol/g and 495 ± 148 (N = 2) pmol/g | 70 °C | +4.6% | thermo-stable |  |  |  |  |  | 
3 | KSCCPCYWGGCPWGQNCYPEGCSGPK [Av3b, reference compound] |  | showed degradation during fermentation | degradation was detected |  | 367 ± 166 (N = 6) pmol/g | 883 ± 25 (N = 2) pmol/g | 69.3 °C | +8.3% | thermo-stable |  | 46 h and 46.34 h | 56 h and 56.087 h | 3.8% | no loss of the peptide; also recorded: stable in pH 4 buffer | 
4 | KSCCPCYWGGCPWGQNCYPEGCSGPG (ends and bridges not checked; cysteine pairing not given here) [Av3bM103] | No | did not show any degradation product; also recorded: prevent degradation | degradation was not detected | comparable knock-down effects to Av3b | 518 ± 390 (N = 2) pmol/g | 879 pmol/g | 82 °C | −64.1% | not thermo-stable |  |  |  |  |  | 7 days

— patent US20250188136A1, “AV3 MUTANT POLYPEPTIDES FOR PEST CONTROL” (Vestaron Corporation, priority 2021, published 2025)
